These are literature values, as cited in patent US7723472B2, “Extracellular matrix binding chimeric proteins and methods of use thereof” (The Regents of the University of California, priority 2005, dated 2010).

For this data set the following is noted: published value for yCD, Kievit et al. 1999.

B1: yCD: Yeast cytosine deaminase (protein, UniProt Q12178 1-158, looked up)
Cytosine deaminase: MVTGGMASKWDQKGMDIAYEEAALGYKEGGVPIGGCLINNKDGSVLGRGHNMRFQKGSATLHGEISTLENCGRLEGKVYKDTTLYTTLSPCDMCTGAIIMYGIPRCVVGENVNFKSKGEKYLQTRGHEVVVVDDERCKKIMKQFIDERPQDWFEDIGE
One may read the Km as the concentration of substrate that gives half-maximal velocity. With B1, the Michaelis constant (Km) was 800 µM and the Vmax is given as 68 μM/min/μg enzyme.
